Laboratory results: paper PMC5695104

Target: recombinant H03-IPSE (Schistosoma haematobium)
Experiment: SDS-PAGE under non-reducing and reducing conditions; 4-20% gradient gel, Coomassie stain and anti-His Western blot; protein purified by IMAC from serum-free culture supernatant; run non-reduced (NR) or reduced (R)

recombinant H03-IPSE (natural protein) was tested, and the stoichiometry N was 2.
